Laboratory results from PMC9568556.

Biological target: Bacillus pseudofirmus Mrp antiporter complex (hetero-heptamer MrpA-MrpG, one protomer) (Bacillus pseudofirmus) (UniProt Q9RGZ5)
Experiment: cryo-EM structure; purified Mrp dimer fractions in 20 mM Tris-HCl pH 8.0, 150 mM NaCl, 0.05% LMNG, 1-2 mg/ml; dimer map 2.96 Å, symmetry-expanded protomer map 2.2 Å

stoichiometry N: 2
Substance: Bacillus pseudofirmus Mrp antiporter complex (hetero-heptamer MrpA-MrpG, one protomer) (from UniProt Q9RGZ5 1-805; Q9RGZ4 1-144; Q9RGZ3 1-112; Q9RGZ2 1-493; Q9RGZ1 1-158; Q9RGZ0 1-91; Q9RGY9 1-119)
